B1: GST-tagged IGF2BP2, Q9Y6M1 1-599 (natural protein)
chain: MMNKLYIGNLSPAVTADDLRQLFGDRKLPLAGQVLLKSGYAFVDYPDQNWAIRAIETLSGKVELHGKIMEVDYSVSKKLRSRKIQIRNIPPHLQWEVLDGLLAQYGTVENVEQVNTDTETAVVNVTYATREEAKIAMEKLSGHQFENYSFKISYIPDEEVSSPSPPQRAQRGDHSSREQGHAPGGTSQARQIDFPLRILVPTQFVGAIIGKEGLTIKNITKQTQSRVDIHRKENSGAAEKPVTIHATPEGTSEACRMILEIMQKEADETKLAEEIPLKILAHNGLVGRLIGKEGRNLKKIEHETGTKITISSLQDLSIYNPERTITVKGTVEACASAEIEIMKKLREAFENDMLAVNQQANLIPGLNLSALGIFSTGLSVLSPPAGPRGAPPAAPYHPFTTHSGYFSSLYPHHQFGPFPHHHSYPEQEIVNLFIPTQAVGAIIGKKGAHIKQLARFAGASIKIAPAEGPDVSERMVIITGPPEAQFKAQGRIFGKLKEENFFNPKEEVKLEAHIRVPSSTAGRVIGKGGKTVNELQNLTSAEVIVPRDQTPDENEEVIVRIIGHFFASQTAQRKIREIVQQVKQQEQKYPQGVASQRSK
B2: insulin-like growth factor 2 mRNA-binding protein 2 (IGF2BP2), endogenous, Q9Y6M1 1-599 (natural protein)
chain: B1 chain

Experiments:
[1] = molecular target: GST-tagged IGF2BP2 (human), Q9Y6M1; experiment: cross-linking; cell suspension with 1.25 mM DSS, 30 min, 37 °C; nondenaturing lysis and PAGE, Western blot; monomer 65 kDa, homodimer 130 kDa; HEK293T (GST-IGF2BP2) and OVCAR3/CAOV3 (endogenous, with Ct-OATP1B3 or IGF2BP2 knockdown or overexpression); conditions: remark: other sources report otherwise
[2] = molecular target: insulin-like growth factor 2 mRNA-binding protein 2 (IGF2BP2), endogenous (human (endogenous in CAOV3 and OVCAR3)), Q9Y6M1; experiment: as above; conditions: remark: other sources report otherwise

Binder	stoichiometry N [1]	stoichiometry N [2]
B1	2	
B2		2
